Sequences and labels used below:
B1: MOR06204 Fab (Fab, V domains shown)
VH: QVQLVESGGGLVQPGGSLRLSCAASGFTFSSYAMNWVRQAPGKGLEWVSHIRKKNTSYTTEYAASVKGRFTISRDNSKNTLYLQMNSLRAEDTAVYYCAREDGSYMTDYFAYWGQGTLVTVSS
VL: DIELTQPPSVSVAPGQTARISCSGDNIGHYYVSWYQQKPGQAPVLVIYSDSNRPSGIPERFSGSNSGNTATLTISGTQAEDEADYYCQSYNGTYVFGGGTKLTVL
notes: Fab format
B2: MOR06214 Fab (Fab, V domains shown)
VH: QVQLVESGGGLVQPGGSLRLSCAASGFTFSSYAMNWVRQAPGKGLEWVSNIQRVGSTYYADSVKGRFTISRDNSKNTLYLQMNSLRAEDTAVYYCAREDGSYMTDYFAYWGQGTLVTVSS
VL: B1 VL
notes: Fab format
B3: MOR06200 Fab (Fab, V domains shown)
VH: QVQLVESGGGLVQPGGSLRLSCAASGFTFSSYYMNWVRQAPGKGLEWVSAISNNGNVTYYADSVKGRFTISRDNSKNTLYLQMNSLRAEDTAVYYCARDLPLVYTGFAYWGQGTLVTVSS
VL: DIELTQPPSVSVAPGQTARISCSGDNLRHYYVYWYQQKPGQAPVLVIYGDSKRPSGIPERFSGSNSGNTATLTISGTQAEDEADYYCQTYTGGASLVFGGGTKLTVL
notes: Fab format
B4: MOR06189 Fab (Fab, V domains shown)
VH: B3 VH with S52N, N53M, N54I, Y59N
VL: B3 VL
notes: Fab format
B5: MOR06187 Fab (Fab, V domains shown)
VH: B3 VH with N53S, N56D, V57I
VL: B3 VL
notes: Fab format
B6: MOR06188 Fab (Fab, V domains shown)
VH: B3 VH with N53T, N56W, V57Q
VL: B3 VL
notes: Fab format
B7: MOR06195 Fab (Fab, V domains shown)
VH: B3 VH with N53G, N56G, V57H
VL: B3 VL
notes: Fab format
B8: MOR06190 Fab (Fab, V domains shown)
VH: B3 VH with A50Y, S52N, N53P, N56M, V57M, Y59N
VL: B3 VL
notes: Fab format
B9: MOR06184 Fab (Fab, V domains shown)
VH: B3 VH with N53H, N54D, T58K
VL: B3 VL
notes: Fab format
B10: MOR06192 Fab (Fab, V domains shown)
VH: B3 VH with A50V, N53P, N54G, N56E, V57A, T58K, Y59S
VL: B3 VL
notes: Fab format
B11: MOR06197 Fab (Fab, V domains shown)
VH: B3 VH with N53M, N54D, N56V, V57Y, T58K
VL: B3 VL
notes: Fab format
B12: MOR06201 Fab (Fab, V domains shown)
VH: B3 VH with N53M, N54H, N56D, V57T
VL: B3 VL
notes: Fab format
B13: MOR06185 Fab (Fab, V domains shown)
VH: B3 VH with N53M, N56D, V57Y, T58I, Y59S
VL: B3 VL
notes: Fab format
B14: MOR06186 Fab (Fab, V domains shown)
VH: B3 VH with S52N, N53L, N54S, N56S, V57A, T58K
VL: B3 VL
notes: Fab format
B15: MOR06183 Fab (Fab, V domains shown)
VH: B3 VH with A50G, S52N, N53M, N54E, G55S, N56T, V57R, T58I
VL: B3 VL
notes: Fab format
B16: MOR06204 IgG (antibody, V domains shown)
VH: B1 VH
VL: DIELTQPPSVSVAPGQTARISCSGDNIGHYYVSWYQQKPGQAPVLVIYSDSNRPSGIPERFSGSNSGNTATLTISGTQAEDEADYYCQSYNGTYVFGGGTKLTVLG
notes: copies: 2 + 2
B17: MOR06195 IgG (antibody, V domains shown)
VH: B3 VH with N53G, N56G, V57H
VL: DIELTQPPSVSVAPGQTARISCSGDNLRHYYVYWYQQKPGQAPVLVIYGDSKRPSGIPERFSGSNSGNTATLTISGTQAEDEADYYCQTYTGGASLVFGGGTKLTVLG
notes: copies: 2 + 2
B18: MOR06192 IgG (antibody, V domains shown)
VH: B3 VH with A50V, N53P, N54G, N56E, V57A, T58K, Y59S
VL: B17 VL
notes: copies: 2 + 2
B19: MOR06197 IgG (antibody, V domains shown)
VH: B3 VH with N53M, N54D, N56V, V57Y, T58K
VL: B17 VL
notes: copies: 2 + 2
B20: MOR06201 IgG (antibody, V domains shown)
VH: B3 VH with N53M, N54H, N56D, V57T
VL: B17 VL
notes: copies: 2 + 2
B21: MOR06214 IgG (antibody, V domains shown)
VH: B2 VH
VL: B16 VL
notes: copies: 2 + 2
B22: MOR03129 Fab (Fab, V domains shown)
VH: QVQLVESGGGLVQPGGSLRLSCAASGFTFSNYSMNWVRQAPGKGLEWVSYIYGGGSYTYYADSVKGRFTISRDNSKNTLYLQMNSLRAEDTAVYYCARQAGMYFDVWGQGTLVTVSS
VL: DIELTQPPSVSVAPGQTARISCSGDNLGSKVVSWYQQKPGQAPVLVIYYDNKRPSGIPERFSGSNSGNTATLTISGTQAEDEADYYCQSYTFESGSVVFGGGTKLTVLG
notes: Fab format
B23: MOR03102 Fab (Fab, V domains shown)
VH: QVQLQESGPGLVKPGETLSLTCTVSGGSISGNYWSWIRQAPGKGLEWIGDYHGSTYYNPSLKGRVTISVDTSKNQFSLKLSSVTAEDTAVYYCAREQYHWGLAWTGFDNWGQGTLVTVSS
VL: DIELTQPPSVSVAPGQTARISCSGDNLGHYYVSWYQQKPGQAPVLVIYDDSDRPSGIPERFSGSNSGNTATLTISGTQAEDEADYYCGAYAMHMTVFGGGTKLTVLG
notes: Fab format
B24: MOR03131 Fab (Fab, V domains shown)
VH: QVQLKESGPALVKPTQTLTLTCTFSGFSLSNSGVGVGWIRQPPGKALEWLADIYSDTTKRYSTSLKTRLTISKDTSKNQVVLTMTNMDPVDTATYYCARYGEAYFDYWGQGTLVTVSS
VL: DIELTQPPSVSVAPGQTARISCSGDNLGNFYVHWYQQKPGQAPVLVIYEDSNRPSGIPERFSGSNSGNTATLTISGTQAEDEADYYCSSWDMYRTIFVFGGGTKLTVLG
notes: Fab format
B25: MOR03089 Fab (Fab, V domains shown)
VH: QVQLKESGPALVKPTQTLTLTCTFSGFSLSSDGMGVGWIRQPPGKALEWLALIDWDDDKRYSTSLKTRLTISKDTSKNQVVLTMTNMDPVDTATYYCARFNWFYRLAFVNPDVWGQGTLVTVSS
VL: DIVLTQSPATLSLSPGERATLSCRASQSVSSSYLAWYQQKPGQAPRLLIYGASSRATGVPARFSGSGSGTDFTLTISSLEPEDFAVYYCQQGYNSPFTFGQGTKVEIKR
notes: Fab format
B26: MOR03101 Fab (Fab, V domains shown)
VH: QVQLKESGPALVKPTQTLTLTCTFSGFSLSTSRVGVSWIRQPPGKALEWLAHIDWNDDKYYSTSLKTRLTISKDTSKNQVVLTMTNMDPVDTATYYCAREDRLLGGYGYDVWGQGTLVTVSS
VL: DIELTQPPSVSVAPGQTARISCSGDSLGSYYVHWYQQKPGQAPVLVIGDDTKRPSGIPERFSGSNSGNTATLTISGTQAEDEADYYCGSRTGYNNSFVFGGGTKLTVLG
notes: Fab format

Residue numbers refer to the chain shown, from its start.

The term Kd denotes the concentration at which binding is half-saturated. The term EC50 denotes the midpoint of the concentration-response curve. A higher EC50 goes with a less potent agent.

The target of one assay is CD38 (antigen of the Bioveris affinity determination) (Homo sapiens (Human), UniProt P28907 45-300, limits assumed). Briefly: Bioveris, Fab format.
The molecule B1 came in with a Kd of 0.0585 nM.

On to B2, for which the Kd was found to be 0.0936 nM.

Regarding B3, the affinity, expressed as Kd, was 0.0599 nM.

B4 had a Kd of 0.0247 nM.

B5 displayed a Kd of 0.0454 nM.

Take B6: the Kd is 0.0593 nM.

For B7, the Kd is 0.0557 nM.

In turn, B8 yielded a Kd of 0.0488 nM.

Molecule B9 showed a Kd of 0.0662 nM.

Molecule B10 yielded a Kd of 0.0747 nM.

Take B11: the affinity, expressed as Kd, was 0.0127 nM.

With B12, the Kd is 0.0186 nM.

B13 yielded a Kd of 0.0137 nM.

As to B14, binding was characterised by a dissociation constant (Kd) of 0.00509 nM.

The molecule B15 gave a Kd of 0.026 nM.

The target of the next assay is T1, human CD38 Fc-fusion aa 45-300 (human, UniProt P28907 45-300).
T1 construct: Expressed in HEK293 behind a human Vkappa leader, which is left out here; also called CD38-Fc fusion protein; CD38 Fc-Fusion protein
The assay can be described thus: SPR (Biacore), Fab format.
B1 came in with a Kd of 22.7 nM.

B2: the dissociation constant (Kd) stood at 5.26 nM.

Molecule B3 displayed a dissociation constant (Kd) of 7.92 nM.

With B4, the affinity, expressed as Kd, was 4.95 nM.

Molecule B5 showed a Kd of 12.5 nM.

For the molecule B6, the Kd came to 3.96 nM.

B7 returned a Kd of 4.52 nM.

Consider B8, for which the affinity, expressed as Kd, was 15.7 nM.

On to B9, for which binding was characterised by a dissociation constant (Kd) of 9.68 nM.

Molecule B10 returned a Kd of 5.01 nM.

Take B11: the Kd was 4.81 nM.

B12 displayed a Kd of 6.81 nM.

In turn, B13 yielded a Kd of 4.39 nM.

With B14, binding was characterised by a dissociation constant (Kd) of 4.62 nM.

B15: the dissociation constant Kd worked out at 13.5 nM.

In the next assay the target is T2, human CD38 on cells (human, UniProt P28907 1-300).
T2 construct: The cell that carried CD38 is named under assay in each row; also called CD38 on Raji, RPMI8226, OPM2, CCRF-CEM, human erythrocytes, CD38 CHO-K1 transfectants
The assay can be described thus: FACS Scatchard on RPMI8226 cells.
B1 yielded an EC50 of 6.36 nM.

With B2, the EC50 was determined as 5.32 nM.

Turning to B3, the EC50 stood at 5.02 nM.

In turn, B4 registered a half-maximal effective concentration (EC50) of 9.41 nM.

Molecule B5 came in with an EC50 of 16.9 nM.

B6 returned an EC50 of 22.7 nM.

Molecule B7 gave an EC50 of 5.6 nM.

Consider B8, for which a half-maximal effect (EC50) was put at 11.7 nM.

On to B9, for which the EC50 worked out at 4.01 nM.

For the molecule B10, the EC50 was 7.07 nM.

The molecule B11 displayed an EC50 of 6.92 nM.

B12: the EC50 is 9 nM.

As for B13, a half-maximal effect (EC50) was put at 7.3 nM.

For the molecule B14, the EC50 was 6.47 nM.

As for B15, the EC50 stood at 28.1 nM.

Another assay concerns the target T1, human CD38 Fc-fusion aa 45-300. The assay can be described thus: ELISA on CD38 Fc-fusion protein, IgG format.
For the molecule B16, the “ELISA CD38 Fc-Fusion protein (% Reactivity of MOR03087)” value amounted to 56%.

B17: the “ELISA CD38 Fc-Fusion protein (% Reactivity of MOR03087)” value is 155%.

Consider B18, for which the “ELISA CD38 Fc-Fusion protein (% Reactivity of MOR03087)” value stood at 111%.

In the case of B19, the “ELISA CD38 Fc-Fusion protein (% Reactivity of MOR03087)” value worked out at 138%.

B20: the “ELISA CD38 Fc-Fusion protein (% Reactivity of MOR03087)” value was determined as 137%.

Regarding B21, the “ELISA CD38 Fc-Fusion protein (% Reactivity of MOR03087)” value came out at 109%.

The target is the same in the next assay. Briefly: SPR (Biacore), Fab on immobilized CD38 Fc-fusion.
B22 came in with a Kd of 43 nM.

As for B23, the Kd was 64 nM.

Turning to B24, the Kd amounted to 451 nM.

As for B25, the Kd is 340 nM.

In the case of B26, the dissociation constant (Kd) is 314 nM.

For the origin of these results see patent publication US20240309109A1 (MorphoSys, published 2024).
